These results are taken from PMC5359625, “The Interrelationship between Abscisic Acid and Reactive Oxygen Species Plays a Key Role in Barley Seed Dormancy and Germination”.

Data set [1] addresses T1, GST-HvABI5 (Hordeum vulgare, UniProt Q8GTR6 1-353).
T1 sequence: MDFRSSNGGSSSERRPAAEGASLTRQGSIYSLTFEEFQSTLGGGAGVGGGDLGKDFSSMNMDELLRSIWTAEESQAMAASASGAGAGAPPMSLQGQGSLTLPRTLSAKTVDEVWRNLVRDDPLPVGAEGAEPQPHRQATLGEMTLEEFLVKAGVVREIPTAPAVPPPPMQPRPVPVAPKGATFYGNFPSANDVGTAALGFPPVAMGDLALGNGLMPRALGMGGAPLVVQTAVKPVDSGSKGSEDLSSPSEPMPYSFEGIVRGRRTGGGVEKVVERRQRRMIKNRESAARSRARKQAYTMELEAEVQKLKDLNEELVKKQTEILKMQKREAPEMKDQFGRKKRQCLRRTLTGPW
Nature of the data set: EMSA; DIG Gel Shift Kit 2nd Generation (Roche), manufacturer's conditions; buffer, salt, pH and temperature not stated. The following applies: protein: recombinant; tags: N-terminal GST (pGEX); chain copies: 2; label: DIG; blunt. (In general: Mobility shift assays separate free from complexed probe on a gel.)

Data set [2] addresses T1, GST-HvABI5. The experiment in a line: competition; 100x molar excess unlabeled competitor vs DIG-labeled N1; DIG Gel Shift Kit 2nd Generation (Roche), manufacturer's conditions; buffer, salt, pH and temperature not stated. To be noted: protein: recombinant; tags: N-terminal GST (pGEX); chain copies: 2; label: none; blunt.

B1: HvCAT2-probe (HvCAT2 promoter, ABRE) (dsDNA)
DNA 1: CACACACACGCACTACGTTCCGAGCATTGCGTCGCGGTGGGTGAG
DNA 2: CTCACCCACCGCGACGCAATGCTCGGAACGTAGTGCGTGTGTGTG
Consider B1, for which the binding result with GST-HvABI5 [1] was “binds”.

B2: unlabeled HvCAT2 probe competitor (dsDNA)
DNA 1: B1 DNA 1
DNA 2: B1 DNA 2
On to B2, for which the binding result in the data set with GST-HvABI5 [2] was “binds”.
